B1: Chirp7 (peptide)
chain: KEGYLVNHSTGCKYECFKLGDNDYCLRECRQQYGKGAGGYCYAFGCWCTHLYEQAVVWPLPKKTCN-NH2
modifications: disulfide (positions not given here); also: four disulfide bridges, pairing not given here
B2: Chirp9 (peptide)
chain: KEGYIVDYHTGCKYTCAKLGDNDYCVRECRLRYYQSAHGYCYAFACWCTHLYEAAVVWPLPNKRCK-NH2
modifications: disulfide (positions not given here); also: four disulfide bridges, pairing not given here

Legend:
hNav 1.6 = assay: Patch-clamp macroscopic sodium currents, hNav1.6 in HEK cells; assay type: cell-based, human; settings: 200 nM toxin; for A: fraction of channels bound to the toxin: activation; for A: fraction of channels bound to the toxin / slope of activation after toxin / V0.5 of activation after toxin: sum of two Boltzmann fit; for A: fraction of channels bound to the toxin / I/Imax (residual peak current) / slope of inactivation after toxin / V0.5 of inactivation after toxin / slope of activation after toxin / V0.5 of activation after toxin: mean ± SE of 5 cells (3–5 cells); for I/Imax (residual peak current): both values marked * (p<0.05 paired t-test); for slope of inactivation after toxin / V0.5 of inactivation after toxin: steady-state inactivation; for slope of inactivation after toxin: control 6.6 ± 0.3 (Chirp7 cells), 6.3 ± 0.1 (Chirp9 cells); for V0.5 of inactivation after toxin: control -55.8 ± 0.3 (Chirp7 cells), -65.0 ± 0.1 (Chirp9 cells); for slope of activation after toxin: control 5.6 ± 0.22 (Chirp7 cells), 7.0 ± 0.4 (Chirp9 cells); for slope of activation after toxin / V0.5 of activation after toxin: both toxin values marked * (p<0.05); for V0.5 of activation after toxin: toxin-bound component, control -22.8 ± 0.3 (Chirp7 cells), -22.5 ± 0.3 (Chirp9 cells)
Description: (§1) Recordings of macroscopic currents from sodium channels. Human voltage-gated sodium channels (hNav 1.1, hNav 1.2 and hNa 1.6) were stably expressed in HEK cells. Cells were maintained at 37 ◦C with 5% CO2 in a humidified atmosphere. The growth medium consisted of high-glucose Dulbecco’s Modified Eagle Medium (DMEM, Sigma Aldrich, Naucalpan de Juarez, Estado de Mexico, Mexico), supplemented with 10% Fetal Bovine Serum (ByProductos, Guadalajara, Jalisco, Mexico) and 500 μg/mL of the antibiotic G418 (Sigma Aldrich, Naucalpan de Juarez, Estado de Mexico, Mexico). The extracellular solution was composed of (in mM): 130 NaCl, 5 KCl, 2 CaCl2, 2 MgCl2, 10 HEPES, and 5 glucose, with the pH adjusted to 7.3 using NaOH. The intracellular solution contained (in mM): 105 CsF, 27 CsCl, 5 NaCl, 2 MgCl2, 10 EGTA, and 10 HEPES, with the pH also adjusted to 7.3 with CsOH. Solutions were delivered to the patched cell via an active perfusion system connected to a variable-speed syringe pump (Model A-99, Razel Scientific Instruments, Fairfax, VT, USA), with a perfusion rate of approximately 1 μL/s. Patch pipettes were made from borosilicate glass capillaries (Warner Instruments, Hamden, CT, USA) using a vertical puller (Model P-30, Sutter Instrument, Novato, CA, USA). The pipettes were filled with the internal solution and had resistance ranging from 1.5 and 3 MΩ. Sodium currents were elicited by 100 ms depolarization ranging from −110 to 30 mV in 10 mV steps, followed by a fully activating step at −10 mV for 50 ms. To better appreciate the effects of scorpion β-sodium toxins, channels were primed by means of a 5 ms depolarization at 50 mV, applied 50 ms before the depolarization steps, as previously described in Cestele et al. 1998 [17]. To ensure complete recovery from inactivation, cells were maintained at −120 mV for 280 ms before each step, while holding potential was set at −100 mV. Currents were acquired using a MultiClamp 700A amplifier and a DigiData 1440A digitizer (Molecular Devices, CA, USA).
(§2) For the activation curve, conductance (G) was calculated from current (I) elicited during depolarization steps by means of the equation G = I/(Vm − ENa), where I is the current elicited at membrane potential Vm, and ENa is the reversal potential of Na^+ ions, calculated experimentally for each cell. Conductance was normalized to its maximal level and plotted against the corresponding membrane potential. For the steady-state inactivation curve, currents elicited at −10 mV (after preconditioning depolarization from −110 to 30 mV) were plotted against the preconditioning potentials. Data from activation and from steady-state inactivation were fitted using a Boltzmann equation: y = A2 + (A1 − A2)/(1 + exp((x − x0)/dx)) where A1 is the initial value, A2 is the final value, x0 is the potential of half-activation (or half-inactivation) and dx is the slope.
For hNav 1.6 currents, activation data after toxin exposure were fitted using the sum of two Boltzmann equations: y = y0 + A (frac/(1 + exp((x − x01)/k1)) + (1 − frac)/(1 + exp((x − x02)/k2))) where the sum is 1, x01 and dx1 are the same as under control conditions, and “frac” represents the fraction of channels bound to the toxin. Data are presented as means ± standard error (SE). The paired sample t-test (also known as the dependent samples t-test) was applied by comparing, for each individual cell recorded, the electrophysiological parameter of interest (e.g., peak current, V½ of activation or inactivation) before toxin application and after toxin application. Significant difference was accepted with a confidence level “p” set at 0.05. […]
Figure S1. Recordings of macroscopic currents from sodium channels. Sodium currents in B) were
elicited by the stimulation protocol depicted in A): currents were elicited by 100 ms depolarization
ranging from -110 to 30 mV in 10 mV steps, followed by a fully activating step at -10 mV for 50 ms. […]

hNav 1.1 = assay: Patch-clamp macroscopic sodium currents, hNav1.1 in HEK cells; assay type: cell-based, human; settings: 200 nM toxin, mean ± SE of 5 cells (3–5 cells); for I/Imax (residual peak current): Chirp9 value marked * (p<0.05 paired t-test); for slope of activation after toxin: control 7.7 ± 0.7 (Chirp7 cells), 7.2 ± 0.3 (Chirp9 cells); for V0.5 of activation after toxin: control -24.8 ± 0.8 (Chirp7 cells, toxin value marked *), -22.8 ± 0.3 (Chirp9 cells), * = p<0.05 paired t-test; for slope of inactivation after toxin / V0.5 of inactivation after toxin: steady-state inactivation; for slope of inactivation after toxin: control 6.7 ± 0.1 (Chirp7 cells), 6.8 ± 0.2 (Chirp9 cells); for V0.5 of inactivation after toxin: control -59.9 ± 0.2 (Chirp7 cells), -59 ± 0.2 (Chirp9 cells)
Description: as §1
as §2, with “slope. […]” for “slope.”
Figure S1. Recordings of macroscopic currents from sodium channels. Sodium currents in B) were elicited by the stimulation protocol depicted in A): currents were elicited by 100 ms depolarization ranging from -110 to 30 mV in 10 mV steps, followed by a fully activating step at -10 mV for 50 ms.
A 5 ms depolarization at 50 mV was applied 50 ms before the depolarization steps to primed the channels. Peak currents obtained during the step depolarization from -110 to 30 mV (C and D, black circle in control and open circle after toxin application) were used to calculate the conductance and construct the activation curves. Currents recorded during the step at -10 mV (C and D, black square in control and open square for the toxin), were used to construct the inactivation curves. […]

antibody = assay: Antibody recognition of Chirp9 compared with Cl13; assay type: binding; settings: effect of the two amino acid differences between Chirp9 and Cl13
Excerpt: Evaluation of the recognition capability of scFvs for the toxins of C. hirsutipalpus. Surface plasmon resonance (SPR) evaluations of the recognition capability of scFvs for the toxins of C. hirsutipalpus. The toxins from C. hirsutipalpus were used to evaluate the recognition capacity of antibody fragments previously generated against Mexican scorpion toxins in a biosensor that detects molecular interactions in real time (Biacore X100, Uppsala, Sweden). The toxins Chirp7 and Chirp9 were covalently immobilized onto the surface of CM5 Chips using the amino coupling kit, achieving binding levels of 200 RUs (1 RU corresponds to a change in surface concentration of approximately one pg of bound mass per mm^2). Each pure toxin was solubilized in 10 mM 2-(N-morpholino) ethanesulfonic acid (pH 6) and bound to cell 2. Cell 1 in the sensor (without bound toxin) was used as a control. The scFvs LR, 10FG2, 11F, HV, and RAS 27 [21] were evaluated for their ability to recognize each toxin.

Molecule	effect on activation curve (hNav 1.6)	effect on peak current (hNav 1.6)	A: fraction of channels bound to the toxin (hNav 1.6)	I/Imax (residual peak current) (hNav 1.6)	slope of inactivation after toxin (hNav 1.6)	V0.5 of inactivation after toxin (hNav 1.6)	slope of activation after toxin (hNav 1.6)	V0.5 of activation after toxin (hNav 1.6)	I/Imax (residual peak current) (hNav 1.1)	slope of activation after toxin (hNav 1.1)	V0.5 of activation after toxin (hNav 1.1)	slope of inactivation after toxin (hNav 1.1)	V0.5 of inactivation after toxin (hNav 1.1)	effect on inactivation kinetic (hNav 1.6; residual current at potentials greater than −30 mV)	antibody recognition of Chirp9 versus Cl13 (antibody)
B1	leftward shift in the activation curves	reduced the peak current	0.34 ± 0.04	0.88 ± 0.03	7.2 ± 0.4	-58 ± 0.4 mV	9.4 ± 1.9	-52.5 ± 3.4 mV	0.98±0.02	6.9 ± 0.5	-26.9 ± 0.6 mV	6.4 ± 0.1	-60.9 ± 0.2 mV	–	–
B2	leftward shift in the activation curves	reduced the peak current	1 ± 0.1	0.29 ± 0.03	6.9 ± 0.4	-67.1 ± 0.5 mV	15.5 ± 0.9	-40.9 ± 0.2 mV	0.94 ± 0.02	8.2 ± 0.2	-23.6 ± 0.2 mV	7.3 ± 0.2	-60.1 ± 0.2 mV	slows down the inactivation kinetic by promoting a residual current	significantly reduce antibody recognition

From PMC12737490, “Beta Toxins Isolated from the Scorpion Centruroides hirsutipalpus (Scorpiones; Buthidae) Affect the Function of Sodium Channels of Mammals” (Toxins, 2025)
